Source: patent publication EP3088890B1 (Chugai Seiyaku Kabushiki Kaisha, dated 2020)

T1: GPC3 peptide 401-430 (SEQ ID NO: 21) (human)
T1 construct: Synthetic 30-residue peptide of GPC3
T1 peptide: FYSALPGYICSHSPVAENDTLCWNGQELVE

T2: GPC3 peptide 181-210 (SEQ ID NO: 10) (human)
T2 construct: Synthetic 30-residue peptide of GPC3
T2 peptide: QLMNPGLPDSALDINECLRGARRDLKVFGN

T3: GPC3 peptide 21-50 (SEQ ID NO: 2) (human)
T3 construct: Synthetic 30-residue peptide of GPC3
T3 peptide: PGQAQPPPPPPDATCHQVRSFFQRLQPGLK

T4: GPC3 peptide 541-570 (SEQ ID NO: 28) (human)
T4 construct: Synthetic 30-residue peptide of GPC3
T4 peptide: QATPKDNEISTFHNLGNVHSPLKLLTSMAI

T5: GPC3 peptide 61-90 (SEQ ID NO: 4) (human)
T5 construct: Synthetic 30-residue peptide of GPC3
T5 peptide: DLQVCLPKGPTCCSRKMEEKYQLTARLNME

T6: GPC3 peptide 301-330 (SEQ ID NO: 16) (human)
T6 construct: Synthetic 30-residue peptide of GPC3
T6 peptide: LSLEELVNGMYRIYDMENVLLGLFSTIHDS

T7: GPC3 peptide 1-30 (SEQ ID NO: 1) (human)
T7 construct: Synthetic 30-residue peptide of GPC3
T7 peptide: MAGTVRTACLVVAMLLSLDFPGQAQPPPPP

T8: GPC3 peptide 501-530 (SEQ ID NO: 26) (human)
T8 construct: Synthetic 30-residue peptide of GPC3
T8 peptide: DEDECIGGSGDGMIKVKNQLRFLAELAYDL

T9: GPC3 peptide 441-470 (SEQ ID NO: 23) (human)
T9 construct: Synthetic 30-residue peptide of GPC3
T9 peptide: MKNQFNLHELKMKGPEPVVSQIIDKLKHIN

T10: GPC3 peptide 41-70 (SEQ ID NO: 3) (human)
T10 construct: Synthetic 30-residue peptide of GPC3
T10 peptide: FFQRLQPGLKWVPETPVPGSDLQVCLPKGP

T11: GPC3 peptide 481-510 (SEQ ID NO: 25) (human)
T11 construct: Synthetic 30-residue peptide of GPC3
T11 peptide: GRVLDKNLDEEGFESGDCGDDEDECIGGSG

T12: GPC3 peptide 421-450 (SEQ ID NO: 22) (human)
T12 construct: Synthetic 30-residue peptide of GPC3
T12 peptide: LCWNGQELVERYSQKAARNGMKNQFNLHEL

T13: GPC3 peptide 281-310 (SEQ ID NO: 15) (human)
T13 construct: Synthetic 30-residue peptide of GPC3
T13 peptide: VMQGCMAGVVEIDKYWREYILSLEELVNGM

T14: GPC3 peptide 241-270 (SEQ ID NO: 13) (human)
T14 construct: Synthetic 30-residue peptide of GPC3
T14 peptide: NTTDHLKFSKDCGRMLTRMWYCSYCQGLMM

T15: GPC3 peptide 121-150 (SEQ ID NO: 7) (human)
T15 construct: Synthetic 30-residue peptide of GPC3
T15 peptide: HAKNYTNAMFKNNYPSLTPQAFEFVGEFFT

T16: GPC3 peptide 201-230 (SEQ ID NO: 11) (human)
T16 construct: Synthetic 30-residue peptide of GPC3
T16 peptide: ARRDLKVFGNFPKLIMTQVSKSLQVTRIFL

T17: GPC3 peptide 221-250 (SEQ ID NO: 12) (human)
T17 construct: Synthetic 30-residue peptide of GPC3
T17 peptide: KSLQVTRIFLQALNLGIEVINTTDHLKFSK

T18: GPC3 peptide 161-190 (SEQ ID NO: 9) (human)
T18 construct: Synthetic 30-residue peptide of GPC3
T18 peptide: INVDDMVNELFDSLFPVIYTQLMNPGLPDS

T19: GPC3 peptide 381-410 (SEQ ID NO: 20) (human)
T19 construct: Synthetic 30-residue peptide of GPC3
T19 peptide: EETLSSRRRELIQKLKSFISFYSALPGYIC

T20: GPC3 peptide 101-130 (SEQ ID NO: 6) (human)
T20 construct: Synthetic 30-residue peptide of GPC3
T20 peptide: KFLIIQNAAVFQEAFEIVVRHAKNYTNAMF

T21: GPC3 peptide 341-370 (SEQ ID NO: 18) (human)
T21 construct: Synthetic 30-residue peptide of GPC3
T21 peptide: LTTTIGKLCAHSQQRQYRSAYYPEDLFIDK

T22: GPC3 peptide 361-390 (SEQ ID NO: 19) (human)
T22 construct: Synthetic 30-residue peptide of GPC3
T22 peptide: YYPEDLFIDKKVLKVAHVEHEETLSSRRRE

T23: GPC3 peptide 141-170 (SEQ ID NO: 8) (human)
T23 construct: Synthetic 30-residue peptide of GPC3
T23 peptide: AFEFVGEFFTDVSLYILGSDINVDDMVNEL

T24: GPC3 peptide 521-550 (SEQ ID NO: 27) (human)
T24 construct: Synthetic 30-residue peptide of GPC3
T24 peptide: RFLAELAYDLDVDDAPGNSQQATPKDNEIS

T25: GPC3 peptide 461-490 (SEQ ID NO: 24) (human)
T25 construct: Synthetic 30-residue peptide of GPC3
T25 peptide: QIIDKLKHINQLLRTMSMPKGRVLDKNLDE

T26: GPC3 peptide 551-580 (SEQ ID NO: 29) (human)
T26 construct: Synthetic 30-residue peptide of GPC3
T26 peptide: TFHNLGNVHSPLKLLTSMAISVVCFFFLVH

T27: GPC3 peptide 321-350 (SEQ ID NO: 17) (human)
T27 construct: Synthetic 30-residue peptide of GPC3
T27 peptide: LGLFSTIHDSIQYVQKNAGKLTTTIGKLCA

B1: GT114 antibody (antibody, IgG1, V domains shown)
VH: DVQLQESGPGLVKPSQSLSLTCTVTGYSITSDSAWNWIRQFPGNKLEWMAYIMYSGITSYNPSLKSRISITRDTAKNQFFLQLNSVTTEDSATYYCSRGYWYFDVWGAGTTVTVSS
VL: QIVLTQSPAIMSASLGEEITLTCSASSSVSYMHWYQQKSGTSPKLLIYSTSILASGVPSRFSGSGSGTFYSLTISSVEAEDAADYYCLQWITYRTFGGGTKLEIKR

Target: T1, GPC3 peptide 401-430 (SEQ ID NO: 21)
Experiment: peptide ELISA, peptide on plate

Row | binding result | Binder
1 | no binding (tested: 2 µg/mL) | B1

Target: T2, GPC3 peptide 181-210 (SEQ ID NO: 10)
Experiment: peptide ELISA, peptide on plate

Row | binding result | Binder
2 | no binding (tested: 2 µg/mL) | B1

Target: T3, GPC3 peptide 21-50 (SEQ ID NO: 2)
Experiment: peptide ELISA, peptide on plate

Row | binding result | Binder
3 | no binding (tested: 2 µg/mL) | B1

Target: T4, GPC3 peptide 541-570 (SEQ ID NO: 28)
Experiment: peptide ELISA, peptide on plate

Row | binding result | Binder
4 | no binding (tested: 2 µg/mL) | B1

Target: T5, GPC3 peptide 61-90 (SEQ ID NO: 4)
Experiment: peptide ELISA, peptide on plate

Row | binding result | Binder
5 | no binding (tested: 2 µg/mL) | B1

Target: T6, GPC3 peptide 301-330 (SEQ ID NO: 16)
Experiment: peptide ELISA, peptide on plate

Row | binding result | Binder
6 | no binding (tested: 2 µg/mL) | B1

Target: T7, GPC3 peptide 1-30 (SEQ ID NO: 1)
Experiment: peptide ELISA, peptide on plate

Row | binding result | Binder
7 | no binding (tested: 2 µg/mL) | B1

Target: T8, GPC3 peptide 501-530 (SEQ ID NO: 26)
Experiment: peptide ELISA, peptide on plate

Row | binding result | Binder
8 | no binding (tested: 2 µg/mL) | B1

Target: T9, GPC3 peptide 441-470 (SEQ ID NO: 23)
Experiment: peptide ELISA, peptide on plate

Row | binding result | Binder
9 | no binding (tested: 2 µg/mL) | B1

Target: T10, GPC3 peptide 41-70 (SEQ ID NO: 3)
Experiment: peptide ELISA, peptide on plate

Row | binding result | Binder
10 | no binding (tested: 2 µg/mL) | B1

Target: T11, GPC3 peptide 481-510 (SEQ ID NO: 25)
Experiment: peptide ELISA, peptide on plate

Row | binding result | Binder
11 | no binding (tested: 2 µg/mL) | B1

Target: T12, GPC3 peptide 421-450 (SEQ ID NO: 22)
Experiment: peptide ELISA, peptide on plate

Row | binding result | Binder
12 | no binding (tested: 2 µg/mL) | B1

Target: T13, GPC3 peptide 281-310 (SEQ ID NO: 15)
Experiment: peptide ELISA, peptide on plate

Row | binding result | Binder
13 | no binding (tested: 2 µg/mL) | B1

Target: T14, GPC3 peptide 241-270 (SEQ ID NO: 13)
Experiment: peptide ELISA, peptide on plate

Row | binding result | Binder
14 | no binding (tested: 2 µg/mL) | B1

Target: T15, GPC3 peptide 121-150 (SEQ ID NO: 7)
Experiment: peptide ELISA, peptide on plate

Row | binding result | Binder
15 | no binding (tested: 2 µg/mL) | B1

Target: T16, GPC3 peptide 201-230 (SEQ ID NO: 11)
Experiment: peptide ELISA, peptide on plate

Row | binding result | Binder
16 | no binding (tested: 2 µg/mL) | B1

Target: T17, GPC3 peptide 221-250 (SEQ ID NO: 12)
Experiment: peptide ELISA, peptide on plate

Row | binding result | Binder
17 | no binding (tested: 2 µg/mL) | B1

Target: T18, GPC3 peptide 161-190 (SEQ ID NO: 9)
Experiment: peptide ELISA, peptide on plate

Row | binding result | Binder
18 | no binding (tested: 2 µg/mL) | B1

Target: T19, GPC3 peptide 381-410 (SEQ ID NO: 20)
Experiment: peptide ELISA, peptide on plate

Row | binding result | Binder
19 | no binding (tested: 2 µg/mL) | B1

Target: T20, GPC3 peptide 101-130 (SEQ ID NO: 6)
Experiment: peptide ELISA, peptide on plate

Row | binding result | Binder
20 | no binding (tested: 2 µg/mL) | B1

Target: T21, GPC3 peptide 341-370 (SEQ ID NO: 18)
Experiment: peptide ELISA, peptide on plate

Row | binding result | Binder
21 | no binding (tested: 2 µg/mL) | B1

Target: T22, GPC3 peptide 361-390 (SEQ ID NO: 19)
Experiment: peptide ELISA, peptide on plate

Row | binding result | Binder
22 | no binding (tested: 2 µg/mL) | B1

Target: T23, GPC3 peptide 141-170 (SEQ ID NO: 8)
Experiment: peptide ELISA, peptide on plate

Row | binding result | Binder
23 | no binding (tested: 2 µg/mL) | B1

Target: T24, GPC3 peptide 521-550 (SEQ ID NO: 27)
Experiment: peptide ELISA, peptide on plate

Row | binding result | Binder
24 | no binding (tested: 2 µg/mL) | B1

Target: T25, GPC3 peptide 461-490 (SEQ ID NO: 24)
Experiment: peptide ELISA, peptide on plate

Row | binding result | Binder
25 | no binding (tested: 2 µg/mL) | B1

Target: T26, GPC3 peptide 551-580 (SEQ ID NO: 29)
Experiment: peptide ELISA, peptide on plate

Row | binding result | Binder
26 | no binding (tested: 2 µg/mL) | B1

Target: T27, GPC3 peptide 321-350 (SEQ ID NO: 17)
Experiment: peptide ELISA, peptide on plate

Row | binding result | Binder
27 | no binding (tested: 2 µg/mL) | B1

These binders were tested against T28, AW3, C-terminally His-tagged recombinant product of positions 1 to 218 of GPC3 (human, UniProt P51654 25-218) (assay: Western blot, pellets of CHO cells expressing the product).
T28 construct: Expressed in CHO cells, cell pellets used in Western blot; The range is as printed and starts at position 1; not shown: C-terminal His tag
T28 sequence (P51654 25-218): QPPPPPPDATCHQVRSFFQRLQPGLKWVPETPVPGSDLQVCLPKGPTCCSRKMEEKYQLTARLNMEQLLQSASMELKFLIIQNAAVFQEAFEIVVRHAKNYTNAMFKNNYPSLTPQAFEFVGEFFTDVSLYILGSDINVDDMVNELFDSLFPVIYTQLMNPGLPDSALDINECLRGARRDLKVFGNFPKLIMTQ

Row | binding result | Binder
28 | no binding | B1

These binders were tested against T29, AW2, C-terminally His-tagged recombinant product of positions 1 to 196 of GPC3 (human, UniProt P51654 25-196) in the same assay as above.
T29 construct: Expressed in CHO cells, cell pellets used in Western blot; The range is as printed and starts at position 1; also called AW2 (1-196); not shown: C-terminal His tag
T29 sequence (P51654 25-196): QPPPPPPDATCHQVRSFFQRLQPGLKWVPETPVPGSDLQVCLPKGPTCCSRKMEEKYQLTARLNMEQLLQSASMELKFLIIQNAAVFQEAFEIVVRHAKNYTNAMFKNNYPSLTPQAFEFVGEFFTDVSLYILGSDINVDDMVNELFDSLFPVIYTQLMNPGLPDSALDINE

Row | binding result | Binder
29 | no binding | B1
